Test results reported in patent US20240084003A1 (SIMCERE ZAIMING PHARMACEUTICAL, published 2024).

T1: monkey CD22 protein (ACROBiosystems, catalog number SI2-R52Ha) (monkey, UniProt F6W485 20-688)
T1 construct: commercial protein; also called monkey CD22-ECD; monkey CD22-ECD-His
T1 sequence: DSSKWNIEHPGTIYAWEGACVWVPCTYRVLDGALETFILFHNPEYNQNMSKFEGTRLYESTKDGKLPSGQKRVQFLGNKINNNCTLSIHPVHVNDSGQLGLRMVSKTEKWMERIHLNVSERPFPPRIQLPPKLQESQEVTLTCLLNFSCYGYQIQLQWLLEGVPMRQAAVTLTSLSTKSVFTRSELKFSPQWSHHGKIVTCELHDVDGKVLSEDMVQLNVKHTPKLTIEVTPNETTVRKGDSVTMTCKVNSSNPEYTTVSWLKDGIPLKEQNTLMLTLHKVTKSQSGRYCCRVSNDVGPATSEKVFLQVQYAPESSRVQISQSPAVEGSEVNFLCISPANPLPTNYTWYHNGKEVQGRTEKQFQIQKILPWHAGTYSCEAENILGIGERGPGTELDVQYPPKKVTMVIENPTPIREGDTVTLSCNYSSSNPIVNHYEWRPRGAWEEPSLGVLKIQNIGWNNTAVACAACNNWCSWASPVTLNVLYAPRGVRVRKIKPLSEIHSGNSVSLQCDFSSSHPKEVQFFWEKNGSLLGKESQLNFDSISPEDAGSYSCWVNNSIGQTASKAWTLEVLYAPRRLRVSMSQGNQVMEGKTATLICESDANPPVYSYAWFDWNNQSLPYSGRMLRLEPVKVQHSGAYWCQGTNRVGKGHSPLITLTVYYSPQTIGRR

B1: F1.280.1 (antibody, human IgG1, kappa, V domains shown)
VH: QIQLVQSGPELKKPGETVKISCKASGYTFTTYGMSWVKQTPGKGLTWMGWINTDSGVPTYADDFKRRFAFSLEASATTAYLQINNLKNEDTATYFCARGGPDYWGQGTTLTVSS
VL: DILLTQSPATLSVTPGETVSLSCRASQSIYKNLHWYHQKSHRSPRLLIKYASDSISGIPSRFTGSGSGTNFTLSINSVKPEDEGIYYCLQGYIVPLTFGAGTKLELKR
notes: human-murine chimeric IgG1 kappa
B2: F2.99.1 (antibody, human IgG1, lambda, V domains shown)
VH: QVTLKESGPGILQPSQTLSLTCSFSGFSLSTFPMGVGWIRQPSGKGLEWLAHIWWDDDEYYNPVLKSRLTISKDTSKKQVYLRIANVDTVDTATYYCTRANWDRWYFDVWGTGTTVTVSS
VL: QLVLTQSSSASFSLGASAKLTCTLSRQHSAYTIEWYQQQPLKPPKYVMEVKKDGSHSTGDGIPDRFSGSSSGADRYLSISNIQPEDEAIYICGVGDTIKEHFVFGGGTKVTVLG
notes: human-murine chimeric IgG1 lambda; VL name legible
B3: F2.42.9 (antibody, human IgG1, lambda, V domains shown)
VH: QVTLKESGPGILQPSQTLSLTCSFSGFSLSTFDRGVGWIRQPSGKGLEWLAHIWWNDKKFYNPVLKSRLTISKDTSKNQVFLTIANVDSADTATYSCARIVWDKYYFDYWGQGIPLTVSS
VL: QLVLTQSSSASFSLGASAKLTCTLSSQHSAYTIEWYQQQPLKPPKFVMDLKKDGSHSTGDGIPARFSGSSSGADRYLTISNIQPEDEAIYICGVGDTIKEQYVFGGGTKVTVLG
notes: as for B2

Tests used:
[1] = molecular target: T2, CD22 on cynomolgus monkey peripheral blood B cells (cynomolgus monkey (Macaca fascicularis)); experiment: FACS, cynomolgus PBMC, CD20+ B cells, antibody 1 nM
T2 construct: whole, on cells; also called cynomolgus monkey B cells
Description: (§1) The monkey peripheral blood mononuclear cells were extracted from fresh cynomolgus monkey peripheral blood (purchased from Shanghai Medicilon Inc.) according to the instructions of Ficoll-Paque Plus (purchased from GE Healthcare, catalog number: 171440-02). After the cell suspension was centrifuged, the cells were resuspended in PBS containing 1% BSA, and then the cells were counted. At the same time, the murine antibody Brilliant Violet 605 anti-human CD20 (catalog number: 302334, purchased from Biolegend) with monkey CD20 cross-binding activity and the chimeric antibodies to be tested (1 nM, 10 nM and 100 nM) were added and incubated at room temperature for 1 hour. After washing the cells three times, APC-labeled secondary antibody anti-human IgG Fc (catalog number: 409306, purchased from Biolegend) was added. After incubation at room temperature in the dark for 30 minutes, the cells were washed 5 times, gently resuspended with PBS containing 1% BSA, and detected and analyzed by FACS (FACS Canto™, purchased from BD Company). Wherein CD20 was used as a marker of B cells, and the CD20-positive B cell population was gated, the proportion of chimeric antibody positive cells was analyzed, and the proportion of chimeric antibody positive cell population to B cell population was calculated after treatments with the chimeric antibodies at the concentrations of 100 nM, 10 nM and 1 nM, respectively. The scatter plot of double-stained cells by Brilliant Violet 605-labeled CD20 and APC secondary antibody indirectly labeled chimeric antibody is shown in FIG. 10A-FIG. 10B (under the condition of 1 nM of chimeric antibody concentration).

[2] = molecular target: T1, monkey CD22 protein (ACROBiosystems, …); experiment: ELISA, coated monkey CD22 protein, antibody 0.00001 nM
Experimental: (§2) In order to detect the binding activity of CD22 human-murine chimeric antibodies to CD22 protein, the purified human CD22-ECD-His protein obtained in Example 2 was diluted with PBS to a final concentration of 2 μg/mL, and then added to 96-well ELISA plate at 100 μl/well. The plate was sealed with plastic film and incubated overnight at 4° C., the plate was washed 2 times with PBS the next day, and then a blocking solution [PBS+2% (w/w) BSA] was added for blocking at room temperature for 2 hours. […] After incubation at 37° C. for 2 hours, the plate was washed 3 times with PBS. HRP (horseradish peroxidase)-labeled secondary antibody (purchased from Sigma, catalog number: A0170) was added, and incubated at 37° C. for 2 hours, and the plate was washed 5 times with PBS. TMB substrate was added at 50 μl/well, and incubated at room temperature for 30 minutes, then a stop solution (1.0 N HCl) was added at 50 μl/well.
(§3) In order to detect the species cross-binding activity of the chimeric antibodies, an ELISA plate was coated with commercial murine CD22 protein (ACROBiosystems, catalog number: SI2-M52Ha) and monkey CD22 protein (ACROBiosystems, catalog number: SI2-R52Ha), respectively, and the ELISA detection was performed according to the method in Example 5.1.

[3] = molecular target: T2, CD22 on cynomolgus monkey peripheral …; experiment: FACS, cynomolgus PBMC, CD20+ B cells, antibody 10 nM
Description: as §1

[4] = molecular target: T1, monkey CD22 protein (ACROBiosystems, …); experiment: ELISA, coated monkey CD22 protein, antibody 0.001 nM
Experimental: as §2, §3

[5] = molecular target: T1, monkey CD22 protein (ACROBiosystems, …); experiment: ELISA, coated monkey CD22 protein, antibody 10 nM
Experimental: as §2, §3

[6] = molecular target: T1, monkey CD22 protein (ACROBiosystems, …); experiment: ELISA, coated monkey CD22 protein, antibody 100 nM
Experimental: as §2, §3

[7] = molecular target: T2, CD22 on cynomolgus monkey peripheral …; experiment: FACS, cynomolgus PBMC, CD20+ B cells, antibody 100 nM
Description: as §1

[8] = molecular target: T1, monkey CD22 protein (ACROBiosystems, …); experiment: ELISA, coated monkey CD22 protein, antibody 0.0001 nM
Experimental: as §2, §3

[9] = molecular target: T1, monkey CD22 protein (ACROBiosystems, …); experiment: ELISA, coated monkey CD22 protein, antibody 0.01 nM
Experimental: as §2, §3

[10] = molecular target: T1, monkey CD22 protein (ACROBiosystems, …); experiment: ELISA, coated monkey CD22 protein, antibody 0.1 nM
Experimental: as §2, §3

| Binder | Proportion of chimeric antibody positive cells to B cells (%) [1] | OD450 [2] | Proportion of chimeric antibody positive cells to B cells (%) [3] | OD450 [4] | OD450 [5] | OD450 [6] | Proportion of chimeric antibody positive cells to B cells (%) [7] | OD450 [8] | OD450 [9] | OD450 [10] |
| --- | --- | --- | --- | --- | --- | --- | --- | --- | --- | --- |
| B1 | 19% | 0.06 OD450 | 18% | 0.06 OD450 | 0.08 OD450 | 0.2 OD450 | 35% | 0.06 OD450 | 0.05 OD450 | 0.06 OD450 |
| B2 | 19% | 0.05 OD450 | 16% | 0.05 OD450 | 1.03 OD450 | 1.37 OD450 | 22% | 0.05 OD450 | 0.07 OD450 | 0.27 OD450 |
| B3 | 20% | 0.07 OD450 | 20% | 0.09 OD450 | 1.65 OD450 | 2.42 OD450 | 23% | 0.07 OD450 | 0.25 OD450 | 0.95 OD450 |
